In patent US20130149312A1, “COMPOSITIONS AND METHODS FOR TREATING COPD EXACERBATION” (MCMASTER UNIVERSITY, priority 2010, published 2013):

Tests used:
IL-1R1 [1] = target: T1, IL-1R1 (Mus musculus, UniProt P13504); test: Acute tobacco smoke model of lung inflammation (BAL cells); format: in vivo; conditions: Balb/c mice; smoke twice daily; BAL day 5; 35F5/MAB005 15 mg/kg i.p. once daily; anakinra 48 mg/kg/day s.c. by ALZET pump
T1 construct: from tissue; host or cells: living Balb/c mice (lung / systemic), read-out BAL cell counts
T1 sequence (P13504 20-576): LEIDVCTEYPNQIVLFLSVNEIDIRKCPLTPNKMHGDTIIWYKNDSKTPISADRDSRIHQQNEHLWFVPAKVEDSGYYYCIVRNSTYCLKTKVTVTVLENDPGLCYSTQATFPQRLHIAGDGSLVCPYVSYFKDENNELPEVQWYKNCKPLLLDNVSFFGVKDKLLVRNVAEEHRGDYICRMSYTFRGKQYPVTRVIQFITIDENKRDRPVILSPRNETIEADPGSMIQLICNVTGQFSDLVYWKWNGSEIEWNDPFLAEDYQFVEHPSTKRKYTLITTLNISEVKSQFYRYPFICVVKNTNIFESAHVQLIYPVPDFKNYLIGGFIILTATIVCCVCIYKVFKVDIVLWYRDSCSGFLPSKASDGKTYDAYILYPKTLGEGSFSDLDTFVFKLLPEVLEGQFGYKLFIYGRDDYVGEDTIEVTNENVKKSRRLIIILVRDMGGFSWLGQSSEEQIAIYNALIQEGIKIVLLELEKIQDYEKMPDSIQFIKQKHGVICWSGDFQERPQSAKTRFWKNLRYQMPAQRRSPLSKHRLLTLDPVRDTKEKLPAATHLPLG
From the text: The antibody 35F5 is a monoclonal antibody which binds to mouse IL-1R1 and prevents the binding of both IL-1beta and IL-1alpha to the receptor IL-1R1Anakinra antagonises the effects of both IL-1beta and IL-1alpha. […] The data shown in this example confirms that inhibition of IL-1R1 by 35F5 decreases inflammation in an acute model of murine lung inflammation, induced by a stimulus relevant to COPD such as smoke. This is consistent with previous observations in the public domain, and with other studies using IL-1Ra (anakinra; IL-1 receptor antagonist). In this mouse model, cigarette smoke causes significant increases in neutrophil BAL cell numbers after 4 days of smoke inhalation. To investigate the effects of IL-1R1 pathway inhibition on the acute inflammatory response to cigarette smoke inhalation, Balb/c mice were exposed to cigarette smoke twice daily (for 50 minutes) […] and dosed intraperitoneally once daily with either 35F5, isotype control rat IgG1 (MAB005), or saline, starting 48 hours before the first smoke exposure and continuing for 4 days. On Day 5, animals were terminated and BAL was performed. An additional treatment arm was included in which animals were exposed to cigarette smoke as above but dosed sub-cutaneously (SC) continuously with anakinra using infusion pumps (ALZET) starting dosing 48 hours prior to the first smoke exposure. […]

IL-1R1 [2] = target: T1, IL-1R1; test: Inhaled LPS model of acute lung inflammation (BAL cells); format: in vivo; conditions: Balb/c mice; anakinra by ALZET osmotic pump from 48 hours before inhaled LPS; BAL 48 hours after challenge; vs control LPS treated mice; P<0.001
From the text: Lipopolysaccharide (LPS) is a component of bacterial cell walls of gram negative bacteria. […] The effect of an IL-1R1 antagonist, anakinra, was examined in a mouse model of LPS mediated inflammatory cell influx into the lung. Anakinra inhibited LPS mediated inflammatory cell influx as measured by BAL total cells into the lung by 47% compared to control LPS treated mice (P<0.001) (FIG. 7).
Anakinra was delivered using an ALZET osmotic pump as described for acute smoke model, and was also administered to the mice 48 hours before the LPS administration. Mice were adult female Balb/c mice.
The mice were placed in a semi-open exposure inhalation box (max 10 mice) and were exposed once to aerosolised LPS—total inhalation session time 12 minutes. P. aeriginosa LPS was used at a concentration of 5 mg/ml and was aerosolised using a nebuliser (such as a PariStar Jet Star nebuliser), filled with 5 ml volume and flow from the nebuliser was 5 l/min (Pressure=2 bar). The control groups received the same procedure but with PBS. […] The BAL was then centrifuged—the cell pellet was analysed using standard automated cell counting and differential cell counting. […] The significance of differences between groups was calculated using Student's T test with one-tailed distribution and two-sample unequal variance. […]

IL-1R1 [3] = target: T2, IL-1R1 (Homo sapiens, UniProt P14778); test: HRV14-induced IL-8 release in BEAS-2b/H292 epithelial cells; conditions: BEAS-2b/H292 cells; PEG purified HRV14; anakinra 25 nM (FIG. 8B)
T2 sequence (P14778 18-569): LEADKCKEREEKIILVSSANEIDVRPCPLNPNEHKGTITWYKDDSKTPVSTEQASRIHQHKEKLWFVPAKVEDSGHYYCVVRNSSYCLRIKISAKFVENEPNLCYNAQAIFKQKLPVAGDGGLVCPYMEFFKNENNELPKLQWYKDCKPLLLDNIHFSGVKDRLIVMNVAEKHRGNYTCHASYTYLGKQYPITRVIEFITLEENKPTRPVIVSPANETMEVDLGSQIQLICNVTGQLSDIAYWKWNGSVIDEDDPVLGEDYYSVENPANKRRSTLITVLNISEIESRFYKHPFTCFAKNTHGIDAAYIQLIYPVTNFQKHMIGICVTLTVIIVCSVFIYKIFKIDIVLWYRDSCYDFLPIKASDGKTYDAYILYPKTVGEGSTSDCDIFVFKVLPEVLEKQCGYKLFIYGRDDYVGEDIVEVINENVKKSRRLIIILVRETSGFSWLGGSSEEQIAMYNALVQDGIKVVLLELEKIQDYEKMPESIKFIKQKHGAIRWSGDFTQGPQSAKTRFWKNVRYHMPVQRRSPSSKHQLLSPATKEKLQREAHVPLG
Procedure: To investigate the role of IL-1 in human rhinovirus (HRV)-mediated inflammatory response, PEG purified HRV14 was used to infect BEAS-2b/H292 cells (human cells available from the ATCC) while those cells were being exposed to an IL-1R antagonist (FIG. 8A). […] A prototypic inflammatory mediator IL-8 (CXCL-1) was examined after treatment and HRV14 infection of the cells (FIG. 8). […] The concentration of anakinra used on the cells was 25 nM.
Cells used for epithelial smoke and virus work were BEAS-2B cells obtained from ATCC (catalogue number CRL-9609) and grown as per suppliers instructions, or H292s from ECACC (catalogue no 91091815 NCI-H292) also grown according to suppliers instructions. […]
Cells were seeded onto collagen coated flat clear bottomed plates and were incubated at 37° C. […] Anakinra or media was replaced onto cells in 100 ul and the virus was added 30 minutes later at a dilution determined by titres of virus stock on HeLa OHIO cells to determine equivalent activity for each batch made in an additional 100 ul . […]
IL-8 was measured in supernatants using ELISA kit (R&D Systems Duoset DY208) according to manufacturer's instructions and using R&D recombinant protein as standards for the assays.

IL-1R [4] = target: T3, IL-1R (Homo sapiens, UniProt P14778); test: Smoke plus HRV virus induced IL-8 release in BEAS-2B cells; format: cell-based; conditions: 20% smoked medium then HRV, different anakinra concentrations
T3 sequence (P14778 18-569): T2 sequence (P14778 18-569)
Procedure: (§1) The inflammatory response of epithelial cell in vitro was measured in response to smoke conditioned medium, or smoke conditioned medium and virus. The smoke conditioned medium was generated by bubbling cigarette smoke through tissue culture (TC) medium, and is referred to later in this example as ‘smoke’ or ‘smoke treatment’ of the cells. One cigarette with the filter removed bubbled through 25 mL medium is equal to 100% smoked medium. Cigarette smoke treated medium was titrated for IL-8 release and cell confluence on BEAS-2b cells. 20% smoked medium was used for all experiments as it induced pro-inflammatory cytokine release without significant cell death.
(§2) To examine the role of IL-1R in smoke and virus induced inflammation, cells were first smoke treated with a pre-treatment of IL-1R antagonist, and then as required, infected with HRV virus with another pre-treatment of IL-1R antagonist, anakinra. (FIGS. 10A and 10C).
(§3) A lit cigarette (no filter) was connected by tubing to a falcon tube (50 ml capacity) containing tissue culture medium which was supported in a glass flask. A peristaltic pump drew the smoke through the tubing and into the tissue culture medium. The waste smoke was drawn into a beaker of detergent. The whole procedure was performed within a fume cupboard to protect the operator and other users of the lab. The procedure was therefore not sterile. […]

IL-1R [5] = target: T3, IL-1R; test: Smoke conditioned medium induced IL-8 release in BEAS-2B cells; format: cell-based; conditions: 20% smoked medium, 24 hours
Procedure: as §1, §2, §3

IL-1R1 [6] = target: T1, IL-1R1; test: IL-1beta-induced neutrophil mediated inflammation in the mouse lung (BAL); format: in vivo; conditions: Balb/c mice; anakinra subcutaneously 1 hour before IL-1beta 5 ng/50 μl intratracheally; BAL after 4 hours; vs control IL-1 treated animals
Procedure: As noted above, the effect of IL-1R1 antagonist treatment on an IL-1beta-induced neutrophil mediated inflammation in the mouse lung was also examined (FIG. 1B). Anakinra (KINERET™) was dosed subcutaneously one hour before a treatment of IL-1beta of 5 ng/50 μl. After four hours, cell counts were obtained by BAL. Anakinra reduced the cell count by 71% compared to control IL-1 treated animals.
Mice were adult Balb/c females. Anakinra was dosed subcutaneously one hour before IL-1beta was administered intratracheally to the mouse lung using a dose of 5 ng in 50 ul. After 4 hours, the lungs of the mouse were lavaged, essentially as for the acute smoke model (example 2), and total cells and differential cell counts performed.

## anakinra
IL-1R1 [1]
  tobacco smoke-induced acute inflammatory cell infiltration in BAL: significantly inhibited
IL-1R1 [2]
  inhibition of LPS mediated inflammatory cell influx (BAL total cells): 47%
IL-1R1 [3]
  IL-8 levels after HRV14 infection: reduced
IL-1R [4]
  combined smoke and virus IL-8 response: Concentration dependent and complete inhibition
IL-1R [5]
  smoke-induced IL-8 response: dose dependent effect
IL-1R [5]; listed as Anakinra
  smoke-induced IL-8 response: partial inhibition
IL-1R1 [6]
  inhibition of IL-1beta-induced increase of neutrophils / cell count in BAL: 71%
